Results published in patent publication US20050282743A1, “Molecular interactions in cells” (Arbor Vita Corporation, priority 2001, published 2005).
Each block holds one sequence with its values, some of them ahead of it. Ends that are not written are not given here. * marks the point of attachment. Biotin = O=C1N[C@H]2[C@H](CS[C@H]2CCCCC(=O)*)N1

How the values were obtained:
Test in all cases: G' assay (10 uM PL peptide), results of TABLE 7 and TABLE 12
Format in all cases: binding
[1] = test system: PDZ protein (GST-PDZ fusion)
Text: (§1) Each page of TABLE 7 and 12 includes seven columns. The columns in each table are numbered from left to right such that the left-most column in each table is column 1 and the right-most column in each table is column 7. Thus, the first column in each table is labeled “AVC ID”; this column simply lists an internal reference number used to refer to the carboxyl-terminal amino acids of the PL proteins listed in the second column. […] All PL peptides were biotinylated at the amino-terminus and the sequences of these PL peptides are presented in TABLE 8 (see end of specification).
(§2) This column provides the gene name for the PDZ portion of the GST-PDZ fusion that interacts with the PDZ-ligand to the left. For PDZ domain-containing proteins with multiple domains, the domain number is listed to the right of the PDZ (i.e., in column 5 labeled “PDZ Domain”), and indicates the PDZ domain number when numbered from the amino-terminus to the carboxy-terminus.
(§3) The third column labeled “Peptide Optimal Concentration” in the tables is a number reflective of the binding interaction between the PL protein and PDZ protein. […] The column labeled “Protein Optimal Concentration” refers to the protein concentration used to assay PL interaction (in ug/ml); a ‘0’ is indicative of 5 ug/ml protein concentration; any other value represents the concentration (in ug/ml) used to determine the dissociation constant for a given interaction.
(§4) Finally, the seventh column labeled “Classification” is another measure of the level of binding. In particular, it provides an absorbance value at 450 nm which indicates the amount of PL peptide bound to the PDZ protein. The following numerical values have the following meanings: ‘1’—A450 nm 0-1; ‘2’—A450 nm 1-2; ‘3’—A450 nm 2-3; ‘4’—A450 nm 3-4; ‘5’—A450 nm of 4 more than 2× repeated; ‘0’—A450 nm 0, i.e., not found to interact. Thus, higher numbers indicate stronger interactions.
(§5) For convenience, the assay conditions described in this section are referred to as the “G′ assay” and the “G″ assay,” with the specific conditions described in the preceding section on G assays being referred to as the “G^0 assay.” The “G′ assay” is identical to the “G^0 assay” except at step (2) the peptide concentration is 10 uM instead of 20 uM.

[2] = target: T1, PDZ protein (GST-PDZ fusion) (Homo sapiens, UniProt Q5TCQ9)
T1 construct: made in house; host or cells: E. coli (DH5alpha, BL21 or JM109)
T1 sequence (Q5TCQ9 1-1481): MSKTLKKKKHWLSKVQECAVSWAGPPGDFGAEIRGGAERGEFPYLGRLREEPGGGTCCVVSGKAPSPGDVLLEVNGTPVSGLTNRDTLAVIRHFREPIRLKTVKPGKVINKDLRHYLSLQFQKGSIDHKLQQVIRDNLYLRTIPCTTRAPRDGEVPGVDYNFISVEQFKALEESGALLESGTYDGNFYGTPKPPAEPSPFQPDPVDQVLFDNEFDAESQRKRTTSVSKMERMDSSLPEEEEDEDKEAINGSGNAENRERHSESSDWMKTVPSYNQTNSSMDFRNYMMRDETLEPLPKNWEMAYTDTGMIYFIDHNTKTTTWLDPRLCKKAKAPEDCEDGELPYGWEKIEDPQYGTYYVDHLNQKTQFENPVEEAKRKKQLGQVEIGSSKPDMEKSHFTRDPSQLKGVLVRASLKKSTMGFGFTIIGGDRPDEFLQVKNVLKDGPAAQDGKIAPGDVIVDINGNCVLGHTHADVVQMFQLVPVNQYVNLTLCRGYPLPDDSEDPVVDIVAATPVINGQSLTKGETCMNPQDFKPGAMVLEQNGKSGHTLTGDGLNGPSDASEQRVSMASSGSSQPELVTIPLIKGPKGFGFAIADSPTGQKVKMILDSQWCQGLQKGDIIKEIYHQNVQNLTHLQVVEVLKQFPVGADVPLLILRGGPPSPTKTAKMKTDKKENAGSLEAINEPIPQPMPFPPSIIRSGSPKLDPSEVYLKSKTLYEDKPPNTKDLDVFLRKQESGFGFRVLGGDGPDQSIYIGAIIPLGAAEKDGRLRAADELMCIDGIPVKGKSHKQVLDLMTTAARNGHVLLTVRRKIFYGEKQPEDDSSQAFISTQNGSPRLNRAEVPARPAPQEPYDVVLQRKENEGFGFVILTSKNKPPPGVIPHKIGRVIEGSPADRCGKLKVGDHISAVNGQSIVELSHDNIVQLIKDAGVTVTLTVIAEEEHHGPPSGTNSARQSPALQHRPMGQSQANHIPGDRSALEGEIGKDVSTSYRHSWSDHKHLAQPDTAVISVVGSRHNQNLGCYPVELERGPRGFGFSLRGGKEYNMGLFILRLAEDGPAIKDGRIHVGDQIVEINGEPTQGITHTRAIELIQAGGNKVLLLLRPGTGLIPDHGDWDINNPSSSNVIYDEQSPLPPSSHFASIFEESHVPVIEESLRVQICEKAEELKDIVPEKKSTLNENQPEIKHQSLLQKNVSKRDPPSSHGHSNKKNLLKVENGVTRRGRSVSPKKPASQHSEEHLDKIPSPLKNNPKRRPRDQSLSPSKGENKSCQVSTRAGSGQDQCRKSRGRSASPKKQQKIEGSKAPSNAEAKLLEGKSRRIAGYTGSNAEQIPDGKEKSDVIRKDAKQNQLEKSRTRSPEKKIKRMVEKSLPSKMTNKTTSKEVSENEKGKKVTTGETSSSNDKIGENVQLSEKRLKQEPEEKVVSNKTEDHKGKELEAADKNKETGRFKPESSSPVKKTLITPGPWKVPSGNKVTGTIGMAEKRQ
Text: as §1, §2, §3, §4, §5

[3] = target: T2, PDZ protein (GST-PDZ fusion) (Homo sapiens, UniProt Q6P0Q8)
T2 construct: made in house; host or cells: E. coli (DH5alpha, BL21 or JM109)
T2 sequence (Q6P0Q8 whole entry, the tested form may be a part): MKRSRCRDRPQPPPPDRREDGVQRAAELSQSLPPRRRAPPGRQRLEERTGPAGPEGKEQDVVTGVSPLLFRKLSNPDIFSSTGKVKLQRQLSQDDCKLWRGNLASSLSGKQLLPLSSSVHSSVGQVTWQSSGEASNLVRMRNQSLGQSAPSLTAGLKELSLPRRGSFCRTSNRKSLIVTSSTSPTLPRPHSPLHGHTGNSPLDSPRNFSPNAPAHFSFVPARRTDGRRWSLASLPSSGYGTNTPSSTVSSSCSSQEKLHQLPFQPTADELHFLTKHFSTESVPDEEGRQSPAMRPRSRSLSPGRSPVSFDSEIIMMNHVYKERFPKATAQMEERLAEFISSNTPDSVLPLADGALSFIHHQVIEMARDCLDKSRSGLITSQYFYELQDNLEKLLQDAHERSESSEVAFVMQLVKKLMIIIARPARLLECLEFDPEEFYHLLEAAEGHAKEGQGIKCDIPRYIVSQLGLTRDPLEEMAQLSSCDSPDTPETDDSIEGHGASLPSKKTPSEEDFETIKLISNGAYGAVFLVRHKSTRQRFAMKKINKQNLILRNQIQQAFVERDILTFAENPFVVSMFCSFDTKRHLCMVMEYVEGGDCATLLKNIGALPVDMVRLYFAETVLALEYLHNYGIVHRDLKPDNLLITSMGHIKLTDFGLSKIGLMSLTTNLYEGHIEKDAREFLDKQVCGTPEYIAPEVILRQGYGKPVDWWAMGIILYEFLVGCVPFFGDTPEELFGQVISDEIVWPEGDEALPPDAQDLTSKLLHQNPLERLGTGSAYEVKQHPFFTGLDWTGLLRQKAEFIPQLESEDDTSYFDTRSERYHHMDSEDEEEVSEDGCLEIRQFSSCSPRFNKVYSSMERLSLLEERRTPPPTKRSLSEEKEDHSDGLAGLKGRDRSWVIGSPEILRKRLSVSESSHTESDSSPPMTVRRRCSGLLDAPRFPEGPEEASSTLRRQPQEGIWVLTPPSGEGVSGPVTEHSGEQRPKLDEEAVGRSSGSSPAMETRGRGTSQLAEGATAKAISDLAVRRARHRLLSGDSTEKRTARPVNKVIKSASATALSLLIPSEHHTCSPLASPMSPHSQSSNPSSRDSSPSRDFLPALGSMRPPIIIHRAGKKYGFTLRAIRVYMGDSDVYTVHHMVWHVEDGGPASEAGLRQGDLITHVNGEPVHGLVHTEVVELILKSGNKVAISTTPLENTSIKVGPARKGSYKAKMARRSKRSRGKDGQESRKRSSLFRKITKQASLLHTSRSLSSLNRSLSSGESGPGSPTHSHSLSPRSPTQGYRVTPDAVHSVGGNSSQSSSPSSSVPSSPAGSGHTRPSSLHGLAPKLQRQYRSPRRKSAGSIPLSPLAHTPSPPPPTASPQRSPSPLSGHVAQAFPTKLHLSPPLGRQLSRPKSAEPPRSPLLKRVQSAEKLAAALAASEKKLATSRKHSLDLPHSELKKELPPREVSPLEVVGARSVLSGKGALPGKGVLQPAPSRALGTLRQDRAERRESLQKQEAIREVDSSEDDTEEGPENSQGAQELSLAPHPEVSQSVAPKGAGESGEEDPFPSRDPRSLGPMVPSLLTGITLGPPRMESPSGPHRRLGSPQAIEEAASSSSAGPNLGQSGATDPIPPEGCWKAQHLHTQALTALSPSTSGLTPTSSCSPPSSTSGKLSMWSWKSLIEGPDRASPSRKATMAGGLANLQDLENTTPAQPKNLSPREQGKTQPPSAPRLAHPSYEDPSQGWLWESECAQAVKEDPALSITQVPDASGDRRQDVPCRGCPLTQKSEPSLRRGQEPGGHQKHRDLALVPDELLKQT
Text: as §1, §2, §3, §4, §5

[4] = target: T3, PDZ protein (GST-PDZ fusion) (Homo sapiens, UniProt Q02410)
T3 construct: made in house; host or cells: E. coli (DH5alpha, BL21 or JM109)
T3 sequence (Q02410 1-837): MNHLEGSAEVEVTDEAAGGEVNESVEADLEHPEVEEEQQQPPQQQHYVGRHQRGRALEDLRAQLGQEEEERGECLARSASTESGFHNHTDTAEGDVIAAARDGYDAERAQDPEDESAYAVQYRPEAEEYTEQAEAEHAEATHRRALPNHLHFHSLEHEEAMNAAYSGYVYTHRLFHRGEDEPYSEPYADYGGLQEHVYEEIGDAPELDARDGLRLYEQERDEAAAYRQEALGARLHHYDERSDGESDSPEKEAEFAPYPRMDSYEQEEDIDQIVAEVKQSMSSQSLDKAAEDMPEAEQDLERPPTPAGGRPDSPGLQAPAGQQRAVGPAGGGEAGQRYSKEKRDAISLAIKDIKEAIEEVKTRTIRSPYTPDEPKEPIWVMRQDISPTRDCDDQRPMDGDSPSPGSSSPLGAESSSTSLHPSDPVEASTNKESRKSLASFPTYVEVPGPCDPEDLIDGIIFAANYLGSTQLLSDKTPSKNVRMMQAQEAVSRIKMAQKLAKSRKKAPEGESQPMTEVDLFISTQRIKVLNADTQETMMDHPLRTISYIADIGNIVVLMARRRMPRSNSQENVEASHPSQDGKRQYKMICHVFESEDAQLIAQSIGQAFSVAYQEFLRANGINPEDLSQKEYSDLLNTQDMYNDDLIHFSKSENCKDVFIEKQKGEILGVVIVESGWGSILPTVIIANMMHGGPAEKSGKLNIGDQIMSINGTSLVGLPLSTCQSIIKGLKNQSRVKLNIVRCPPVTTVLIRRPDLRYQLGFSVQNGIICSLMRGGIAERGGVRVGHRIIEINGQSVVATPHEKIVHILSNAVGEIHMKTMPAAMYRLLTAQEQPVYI
Text: as §1, §2, §3, §4, §5

[5] = target: T4, PDZ protein (GST-PDZ fusion) (Homo sapiens, UniProt Q12923)
T4 construct: made in house; host or cells: E. coli (DH5alpha, BL21 or JM109)
Text: as §1, §2, §3, §4, §5

[6] = target: T5, PDZ protein (GST-PDZ fusion) (Homo sapiens, UniProt O75970)
T5 construct: made in house; host or cells: E. coli (DH5alpha, BL21 or JM109)
T5 sequence (O75970 whole entry, the tested form may be a part): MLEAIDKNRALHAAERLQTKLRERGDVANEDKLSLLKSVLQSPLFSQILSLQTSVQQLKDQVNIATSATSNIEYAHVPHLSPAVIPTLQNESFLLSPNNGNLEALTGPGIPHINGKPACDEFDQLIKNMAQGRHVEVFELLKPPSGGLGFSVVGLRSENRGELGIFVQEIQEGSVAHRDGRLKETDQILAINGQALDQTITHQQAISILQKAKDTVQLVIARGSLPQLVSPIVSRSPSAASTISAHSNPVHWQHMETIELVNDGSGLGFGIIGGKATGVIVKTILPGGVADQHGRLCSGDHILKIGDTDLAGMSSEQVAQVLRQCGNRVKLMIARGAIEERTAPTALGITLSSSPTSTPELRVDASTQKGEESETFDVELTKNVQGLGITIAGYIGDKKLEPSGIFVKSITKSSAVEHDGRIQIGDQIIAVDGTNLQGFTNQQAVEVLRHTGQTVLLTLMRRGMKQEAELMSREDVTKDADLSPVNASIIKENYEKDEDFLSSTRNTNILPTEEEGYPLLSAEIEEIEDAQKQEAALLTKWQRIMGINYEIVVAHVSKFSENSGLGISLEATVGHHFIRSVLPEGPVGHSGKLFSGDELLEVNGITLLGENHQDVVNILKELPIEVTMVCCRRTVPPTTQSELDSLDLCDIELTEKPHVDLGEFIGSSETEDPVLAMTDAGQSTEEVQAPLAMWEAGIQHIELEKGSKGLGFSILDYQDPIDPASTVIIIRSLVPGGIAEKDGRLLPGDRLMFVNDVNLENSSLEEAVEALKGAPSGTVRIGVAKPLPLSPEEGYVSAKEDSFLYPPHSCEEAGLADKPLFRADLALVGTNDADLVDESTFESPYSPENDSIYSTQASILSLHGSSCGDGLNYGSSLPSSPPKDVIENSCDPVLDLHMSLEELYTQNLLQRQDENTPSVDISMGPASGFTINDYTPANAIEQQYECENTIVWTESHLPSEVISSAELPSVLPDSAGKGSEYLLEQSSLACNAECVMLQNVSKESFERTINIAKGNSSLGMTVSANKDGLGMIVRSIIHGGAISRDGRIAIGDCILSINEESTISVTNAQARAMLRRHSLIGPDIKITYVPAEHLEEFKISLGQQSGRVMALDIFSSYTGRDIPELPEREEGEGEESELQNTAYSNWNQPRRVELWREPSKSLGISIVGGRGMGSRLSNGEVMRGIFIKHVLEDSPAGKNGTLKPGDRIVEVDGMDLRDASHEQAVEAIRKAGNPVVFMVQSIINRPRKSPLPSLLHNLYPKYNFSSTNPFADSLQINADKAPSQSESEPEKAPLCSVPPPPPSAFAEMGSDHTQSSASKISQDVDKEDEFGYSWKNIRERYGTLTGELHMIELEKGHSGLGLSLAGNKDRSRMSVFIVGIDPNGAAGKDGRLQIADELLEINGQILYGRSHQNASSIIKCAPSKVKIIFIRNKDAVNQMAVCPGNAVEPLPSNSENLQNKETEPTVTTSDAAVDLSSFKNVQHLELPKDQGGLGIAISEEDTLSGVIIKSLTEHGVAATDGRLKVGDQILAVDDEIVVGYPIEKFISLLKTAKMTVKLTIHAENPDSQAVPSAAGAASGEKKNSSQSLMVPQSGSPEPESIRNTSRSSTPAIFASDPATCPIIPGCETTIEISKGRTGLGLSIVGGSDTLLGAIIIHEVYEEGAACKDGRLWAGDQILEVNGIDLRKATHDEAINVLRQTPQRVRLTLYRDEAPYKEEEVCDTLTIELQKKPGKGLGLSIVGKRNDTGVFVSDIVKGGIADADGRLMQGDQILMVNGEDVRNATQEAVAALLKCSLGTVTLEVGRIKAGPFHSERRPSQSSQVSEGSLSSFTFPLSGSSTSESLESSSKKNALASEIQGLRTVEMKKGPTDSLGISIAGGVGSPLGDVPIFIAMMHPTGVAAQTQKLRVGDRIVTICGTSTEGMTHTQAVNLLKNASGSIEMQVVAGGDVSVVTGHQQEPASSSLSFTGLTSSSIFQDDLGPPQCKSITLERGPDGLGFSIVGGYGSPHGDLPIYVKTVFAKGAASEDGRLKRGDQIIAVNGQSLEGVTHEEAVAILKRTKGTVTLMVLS
Text: as §1, §2, §3, §4, §5

[7] = target: T6, PDZ protein (GST-PDZ fusion) (Homo sapiens, UniProt Q14160); conditions: PDZ KIAA0147, PDZ Domain 1
T6 construct: made in house; host or cells: E. coli (DH5alpha, BL21 or JM109)
Text: as §1, §2, §3, §4, §5

[8] = target: T7, PDZ protein (GST-PDZ fusion) (Homo sapiens, UniProt Q8NI35); conditions: PDZ INADL, PDZ Domain 8
T7 construct: made in house; host or cells: E. coli (DH5alpha, BL21 or JM109)
Text: as §1, §2, §3, §4, §5

[9] = target: T8, PDZ protein (GST-PDZ fusion) (Homo sapiens, UniProt O15018); conditions: PDZ AIPC, PDZ Domain 1
T8 construct: made in house; host or cells: E. coli (DH5alpha, BL21 or JM109)
Text: as §1, §2, §3, §4, §5

[10] = PDZ KIAA807, PDZ Domain not given

Sequence: PYQSQGFSTEEDEDEQVSAV (Biotin-PYQSQGFSTEEDEDEQVSAV) [RA-GEF (ras/rap1A-assoc-GEF)]
- Classification ([5]; PDZ PTPL-1, PDZ Domain 2): 4 (A450 nm 3-4)
- Classification ([2]; PDZ KIAA1634, PDZ Domain 2): 2 (A450 nm 1-2)
- Classification [7]: 1 (A450 nm 0-1)

Sequence: RDSFHRSSFRKAETQLSQGS (Biotin-RDSFHRSSFRKAETQLSQGS) [Clasp-5]
- Classification ([1]; PDZ BAI-1, PDZ Domain 2): 1 (A450 nm 0-1)
- Classification ([1]; PDZ SHANK, PDZ Domain 1): 1 (A450 nm 0-1)
- Classification ([3]; PDZ KIAA807): 1 (A450 nm 0-1)
- Classification ([3]; PDZ KIAA0807(S), PDZ Domain 1): 1 (A450 nm 0-1)

Sequence: SPQPDSTDNDDYDDISAA (Biotin-SPQPDSTDNDDYDDISAA) [CD6]
- Classification ([3]; PDZ KIAA0807(S), PDZ Domain 1): 1 (A450 nm 0-1)
- Classification [3, 10]: 1 (A450 nm 0-1)

Sequence: VISKATPALPTVSISSSAEV (Biotin-VISKATPALPTVSISSSAEV) [Clasp-1]
- Classification [9]: 1 (A450 nm 0-1)
- Classification ([3]; PDZ KIAA0807(S), PDZ Domain 1): 1 (A450 nm 0-1)
- Classification [3, 10]: 1 (A450 nm 0-1)
- Classification ([4]; PDZ Mint 1, PDZ Domain 1, 2): 1 (A450 nm 0-1)

Further lines, with some results ahead:

- Classification ([2]; PDZ KIAA1634, PDZ Domain 1): 1 (A450 nm 0-1)
- Classification ([3]; PDZ KIAA807): 1 (A450 nm 0-1)
- Classification ([4]; PDZ Mint 1, PDZ Domain 1, 2): 2 (A450 nm 1-2)
Sequence: PGQPPKVKSEFNSYSLTGYV (Biotin-PGQPPKVKSEFNSYSLTGYV) [claudin 2]
- Classification ([1]; PDZ BAI-1, PDZ Domain 3): 1 (A450 nm 0-1)

- Classification ([5]; PDZ PTPL-1, PDZ Domain 4): 2 (A450 nm 1-2)
Sequence: PRLKRMQQFEDLEDEIPQFV (Biotin-PRLKRMQQFEDLEDEIPQFV) [RhoGAP 1 (PTPL1-associated)]

- Classification ([5]; PDZ PTPL-1, PDZ Domain 4): 2 (A450 nm 1-2)
- Classification ([6]; PDZ MUPP-1, PDZ Domain 3): 1 (A450 nm 0-1)
- Classification ([6]; PDZ MUPP-1, PDZ Domain 7): 1 (A450 nm 0-1)
- Classification ([6]; PDZ MUPP-1, PDZ Domain 9): 1 (A450 nm 0-1)
- Classification ([3]; PDZ KIAA0807(S), PDZ Domain 1): 1 (A450 nm 0-1)
- Classification ([3]; PDZ KIAA807 (domain not given)): 1 (A450 nm 0-1)
Sequence: PVYIVQEMPPQSPANIYYKV (Biotin-PVYIVQEMPPQSPANIYYKV) [ephrin B1]

- Classification [8]: 1 (A450 nm 0-1)
- Classification ([4]; PDZ Mint 1, PDZ Domain 2): 1 (A450 nm 0-1)
Sequence: SYPTPRPYPKPAPSSGKDYV (Biotin-SYPTPRPYPKPAPSSGKDYV) [claudin 1]

- Classification ([6]; PDZ MUPP-1, PDZ Domain 3): 1 (A450 nm 0-1)
- Classification ([6]; PDZ MUPP-1, PDZ Domain 7): 1 (A450 nm 0-1)
- Classification ([6]; PDZ MUPP-1, PDZ Domain 9): 1 (A450 nm 0-1)
- Classification ([3]; PDZ KIAA0807(S), PDZ Domain 1): 1 (A450 nm 0-1)
Sequence: TALRIKKTLAKMVESQDVKI (Biotin-TALRIKKTLAKMVESQDVKI) [bone morphogenetic protein receptor]
